# Assays:
# PRMT1-WT = molecular target: T1, PRMT1-WT (Homo sapiens, UniProt Q99873); test: Radiometric filter-binding assay, PRMT1-WT activity in presence of inactive PRMT1 mutants; format: biochemical; conditions: 0.05 μM PRMT1-WT, mutant 20 min on ice, 50 μM peptide, 2 μM [3H]-SAM and 48 μM SAM, 30 min
# T1 construct: His-MBP (N, cleaved yes); made in house; host or cells: Escherichia coli BL21 (DE3) RIPL
# From the text: (§1) Constant PRMT1-WT concentration and various PRMT1-E153Q concentrations were maintained in the aqueous buffer prior to adding peptide and SAM to initiate the reaction. The reaction was quenched with isopropanol. The reaction mixture was loaded on the P81 filter paper that was air dried, washed, and immersed in scintillation cocktail for scintillation counting. […] To eliminate this possibility, we created a double mutant (PRMT1-H293G/E153Q) to further abolish PRMT1 activity. […] We then tested PRMT1-WT activity in the presence of various concentrations of PRMT1-H293G/E153Q (Fig. 7, G–L). […] These increasing trends were the same as that of PRMT1-E153Q. […] Again, similar to Figure 6, D–F, the increase in kcat started to slow down a bit at >1 μM concentrations of PRMT1-E153Q or PRMT1-H293G/E153Q, which is likely due to substrate overconsumption under these conditions.
# Figure 7 Arginine methylation of various peptides by high-order oligomeric PRMT1-WT and PRMT1 mutants. Filter-binding assay was used to characterize the methyltransferase activity. Firstly, 0.05 μM of PRMT1 was incubated with various concentrations of PRMT1-E153Q or PRMT1-H293G/E153Q on ice for 20 min. Afterward, 2 μM radioactive [3H]-SAM and 48 μM SAM and 50 μM of indicated peptides was added and incubated for 30 min before quenching the reaction with 100% isopropanol. […]
# R4 peptide = test: Radiometric methyltransferase activity of PRMT1 mutants on R4 peptide; format: biochemical; conditions: various mutant concentrations, 50 μM peptide, 2 μM [3H]-SAM and 48 μM SAM, 30 min
# From the text: as §1
# To perform PRMT1 and PRMT1 mutants (PRMT1-E153Q and PRMT1-H293G/E153Q) concentration-dependent measurement, each reaction contained various concentration of PRMT1 or PRMT1 mutant, 50 μM of peptide, and 50 μM SAM (48 μM cold and […] ^3H-SAM). The reaction buffer consisted of 50 mM Hepes pH 8.0, 10 mM NaCl, 0.5 mM EDTA, and 0.5 mM DTT. The reaction was incubated at room temperature for 30 min after being initiated with ^3H-SAM SAM. An equal amount of 100% isopropanol to the total reaction volume was used to quench the reaction. […]
# T1 sequence (Q99873 11-353 isoform Q99873-3): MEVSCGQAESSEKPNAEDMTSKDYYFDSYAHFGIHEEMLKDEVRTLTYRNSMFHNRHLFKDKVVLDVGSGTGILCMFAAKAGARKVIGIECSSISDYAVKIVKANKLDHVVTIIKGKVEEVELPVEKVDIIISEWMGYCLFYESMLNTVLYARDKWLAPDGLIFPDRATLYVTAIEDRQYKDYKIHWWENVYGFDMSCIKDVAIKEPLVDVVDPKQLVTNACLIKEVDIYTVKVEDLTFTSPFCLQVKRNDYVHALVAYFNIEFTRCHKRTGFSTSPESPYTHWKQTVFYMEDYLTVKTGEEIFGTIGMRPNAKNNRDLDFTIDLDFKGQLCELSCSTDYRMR
substance,measurement,setting,value
PRMT1-H293G/E153Q: double mutant created to further abolish PRMT1 activity,kcat of PRMT1-WT (CPM / PRMT1-WT concentration) in presence of mutant,PRMT1-WT,increased as a function of PRMT1-H293G/E153Q concentration
same,methylated product amount (CPM) of PRMT1-WT in presence of mutant,PRMT1-WT,gradually went up as the concentrations of the double mutant increased
same,methyltransferase activity of PRMT1 mutant,R4 peptide,"even weaker than PRMT1-E153Q, greatly diminished to near background level"
